Residue numbers refer to the chain shown, from its start. Blank lines part the entries; values can stand above or below the binder they belong to.
Assays:
Mouse NOTUM = target: T1, Mouse NOTUM (mouse, UniProt Q8R116 20-503); test: ELISA (column 'Mouse NOTUM binding')
T1 construct: also called recombinant mouse NOTUM
T1 sequence: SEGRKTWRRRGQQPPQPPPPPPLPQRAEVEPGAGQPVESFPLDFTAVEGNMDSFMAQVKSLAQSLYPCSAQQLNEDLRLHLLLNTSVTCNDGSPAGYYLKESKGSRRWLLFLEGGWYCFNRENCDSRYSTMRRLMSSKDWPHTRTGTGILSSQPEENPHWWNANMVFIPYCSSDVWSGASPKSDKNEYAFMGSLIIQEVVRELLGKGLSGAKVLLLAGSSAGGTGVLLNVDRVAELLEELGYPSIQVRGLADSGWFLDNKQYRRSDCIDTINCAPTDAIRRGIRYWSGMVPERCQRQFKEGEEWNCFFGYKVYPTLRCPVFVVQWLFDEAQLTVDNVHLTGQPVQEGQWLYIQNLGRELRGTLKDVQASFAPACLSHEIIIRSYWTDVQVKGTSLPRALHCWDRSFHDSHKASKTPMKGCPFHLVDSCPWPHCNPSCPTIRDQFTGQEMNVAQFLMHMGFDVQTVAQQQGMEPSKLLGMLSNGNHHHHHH

Human NOTUM = target: T2, Human NOTUM (human, UniProt Q6P988 20-496); test: cell-based or functional assay
T2 sequence: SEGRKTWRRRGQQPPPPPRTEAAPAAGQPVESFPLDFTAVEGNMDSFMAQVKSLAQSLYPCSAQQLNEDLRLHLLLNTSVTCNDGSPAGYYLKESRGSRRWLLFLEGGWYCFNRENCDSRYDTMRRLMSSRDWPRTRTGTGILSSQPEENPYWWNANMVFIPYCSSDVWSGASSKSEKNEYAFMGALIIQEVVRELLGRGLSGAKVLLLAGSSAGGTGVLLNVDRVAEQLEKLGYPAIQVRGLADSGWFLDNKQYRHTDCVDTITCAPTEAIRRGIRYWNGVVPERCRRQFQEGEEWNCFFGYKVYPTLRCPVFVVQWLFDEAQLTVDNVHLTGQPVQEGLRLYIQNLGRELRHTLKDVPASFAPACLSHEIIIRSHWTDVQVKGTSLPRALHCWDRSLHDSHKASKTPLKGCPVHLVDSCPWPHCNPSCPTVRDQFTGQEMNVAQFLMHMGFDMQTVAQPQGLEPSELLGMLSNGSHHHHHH

H-M-H = target: T3, H-M-H; test: ELISA on conditioned medium of HEK293F transfected with the NOTUM construct (Example 6.7)
T3 construct: Drawn on the sheet as human up to the M177 line, a mouse middle segment, then a human C-terminal part; Conditioned medium from transfected HEK293F; also called Human-mouse-human chimeric NOTUM
T3 single chain: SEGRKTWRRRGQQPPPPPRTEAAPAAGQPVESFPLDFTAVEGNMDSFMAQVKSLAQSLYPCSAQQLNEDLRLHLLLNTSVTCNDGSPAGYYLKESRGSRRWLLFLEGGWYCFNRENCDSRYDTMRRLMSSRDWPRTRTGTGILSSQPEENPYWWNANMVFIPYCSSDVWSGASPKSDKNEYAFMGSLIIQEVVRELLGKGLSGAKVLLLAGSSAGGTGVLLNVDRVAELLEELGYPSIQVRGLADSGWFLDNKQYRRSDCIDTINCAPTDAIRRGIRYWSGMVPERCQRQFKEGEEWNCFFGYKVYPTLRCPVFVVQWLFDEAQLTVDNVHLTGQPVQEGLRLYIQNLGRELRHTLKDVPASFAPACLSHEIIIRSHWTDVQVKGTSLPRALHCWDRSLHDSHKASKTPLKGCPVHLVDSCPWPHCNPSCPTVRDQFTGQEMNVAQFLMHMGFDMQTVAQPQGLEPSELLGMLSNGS
Description: (§1) The sequences of those proteins are shown in Section 7 (Table of Sequences). The conditioned media were used in ELISA format to determine antibody specificity. […] Within this region, mouse and human NOTUM differ at five positions (R115K, D141S. R150K, R154H, and Y171H, based on the human sequence numbering). Human NOTUM point mutants were generated by transient transfection of constructs expressing human NOTUM with the mouse amino acid at each of these five positions and the point mutants were all shown to be functional in the OPTS assay.

M-H-M = target: T4, M-H-M; test: as above
T4 construct: Drawn on the sheet as mouse up to the M177 line, a human middle segment, then a mouse C-terminal part; Conditioned medium from transfected HEK293F; also called Mouse-human-mouse chimeric NOTUM
T4 single chain: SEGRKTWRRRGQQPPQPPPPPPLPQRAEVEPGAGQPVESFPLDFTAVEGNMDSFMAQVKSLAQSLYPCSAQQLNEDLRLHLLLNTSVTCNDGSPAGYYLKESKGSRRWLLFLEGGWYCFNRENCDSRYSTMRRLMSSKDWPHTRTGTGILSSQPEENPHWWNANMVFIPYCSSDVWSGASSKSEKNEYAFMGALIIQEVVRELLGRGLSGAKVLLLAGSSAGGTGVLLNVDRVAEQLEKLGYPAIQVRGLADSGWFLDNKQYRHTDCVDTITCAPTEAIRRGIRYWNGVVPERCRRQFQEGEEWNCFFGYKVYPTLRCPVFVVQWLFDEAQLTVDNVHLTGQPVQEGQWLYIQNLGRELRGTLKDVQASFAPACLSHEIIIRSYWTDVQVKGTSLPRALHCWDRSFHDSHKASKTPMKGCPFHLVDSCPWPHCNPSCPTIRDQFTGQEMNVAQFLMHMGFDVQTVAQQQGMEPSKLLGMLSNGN
Description: as §1

M-H = target: T5, M-H; test: as above
T5 construct: Drawn on the sheet as mouse N-terminal part and human C-terminal part; Conditioned medium from transfected HEK293F; also called Mouse-human chimeric NOTUM
T5 single chain: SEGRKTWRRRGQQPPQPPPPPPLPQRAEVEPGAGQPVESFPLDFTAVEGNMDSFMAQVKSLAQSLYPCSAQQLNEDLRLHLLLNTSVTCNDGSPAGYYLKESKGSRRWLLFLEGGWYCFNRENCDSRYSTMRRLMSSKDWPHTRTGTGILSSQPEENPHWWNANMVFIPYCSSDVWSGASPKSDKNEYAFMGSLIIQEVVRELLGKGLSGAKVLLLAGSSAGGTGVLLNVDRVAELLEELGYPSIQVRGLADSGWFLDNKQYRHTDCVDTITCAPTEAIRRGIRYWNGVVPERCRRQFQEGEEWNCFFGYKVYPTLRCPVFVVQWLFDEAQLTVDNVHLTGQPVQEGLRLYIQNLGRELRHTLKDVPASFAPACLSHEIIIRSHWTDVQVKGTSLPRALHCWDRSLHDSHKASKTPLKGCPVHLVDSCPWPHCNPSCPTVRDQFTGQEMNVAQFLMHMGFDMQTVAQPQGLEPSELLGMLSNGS
Description: as §1

binding result (Mouse NOTUM): no binding
OPTS IC50 (nM; human NOTUM) (Human NOTUM): 6.44 nM
Wnt signaling IC50 (nM; human NOTUM) (Human NOTUM): 5.71 nM
binding result (H-M-H): binds
binding result (M-H-M): no binding
binding result (M-H): no binding
B1: MAb 1.802 (antibody, V domains shown)
VH: EVQLVESGGGLVKPGGSLKLSCAASGFTFSDYGMHWFRQAPEKGLEWVAYISSGSRTVYYADTVKGRFTISRDNAKNTLSLQMTSLRSEDTAMYYCARKHYNGGYFDVWGTGTTVTVSS
VL: DIVLTQSPASLAVSLGQRATISCRASKIVSTSGYSYMHWYQQKPGQPPKLLIYLASNLESGVPARFSGSGSGTDFTLNIHPVEEEDAATYYCQHSRELPPTFGSGTKLEIKR
notes: Mouse monoclonal antibody from Campaign 1 (raised against human NOTUM), IgG1

binding result (Mouse NOTUM): no binding
OPTS IC50 (nM; human NOTUM) (Human NOTUM): 7.62 nM
Wnt signaling IC50 (nM; human NOTUM) (Human NOTUM): 6.88 nM
binding result (H-M-H): binds
binding result (M-H-M): no binding
binding result (M-H): no binding
B2: MAb 1.815 (antibody, IgG1, V domains shown)
VH: DVQLLESGGGLVQPGGSRKLSCAASGFTFSDFGMHWVRQAPEKGLEWVAYSSSGGTTVYYADTVKGRLTLSRDNSKNTLFLEMTSLRSEDTAMYYCARASYDGGYFDCWGQGTSLTVSS
VL: B1 VL with I28S, M37I, N57D, T73A, D74A, Q93H, P100F
notes: Mouse monoclonal antibody from Campaign 1, IgG1

binding result (Mouse NOTUM): no binding
OPTS IC50 (nM; human NOTUM) (Human NOTUM): 10.1 nM
Wnt signaling IC50 (nM; human NOTUM) (Human NOTUM): 1.7 nM
binding result (H-M-H): binds
binding result (M-H-M): no binding
binding result (M-H): no binding
B3: MAb 1.846 (antibody, IgG2b, V domains shown)
VH: B1 VH with G10D, F37L, R56T, V58L, Y59S, D62N, V64M, N77K, M93I, H100N
VL: B1 VL with A12V, I28S, T31E, E85G, A88T, E97V
notes: Mouse monoclonal antibody from Campaign 1, IgG2b

Reference: patent US20130302346A1 (LEXICON PHARMACEUTICALS, published 2013)
